Data from patent US20260217797A1 (Takeda / Millennium, published 2026).

Key:
SARS-CoV-2 RBD-mFc = SARS-CoV-2 RBD-mFc (SARS-CoV-2, UniProt P0DTC2 319-541); assay: Octet BLI, IgG, avid
[1] = molecular target: SARS-CoV-2 Omicron (B.1.529) spike protein (on reporter virus particles) (SARS-CoV-2, UniProt P0DTC2 14-1273); assay: cell-based or functional assay
[2] = molecular target: SARS-CoV-2 B.1.617.2 (Delta) RBD (SARS-CoV-2, UniProt P0DTC2 319-541); assay: Octet BLI single point, monovalent
[3] = molecular target: SARS-CoV-2 B.1.1.7 N501Y (Alpha) RBD (SARS-CoV-2, UniProt P0DTC2 319-541); assay: Octet BLI single point, monovalent
[4] = molecular target: SARS-CoV-2 P.1 Spike (Gamma) (SARS-CoV-2, UniProt P0DTC2 16-1213); assay: Octet BLI single point, monovalent
[5] = molecular target: SARS-CoV-2 B.1.617.1 (Kappa) RBD (SARS-CoV-2, UniProt P0DTC2 319-541); assay: Octet BLI single point, monovalent
[6] = molecular target: SARS-CoV-2 B.1.351 (Beta) RBD (SARS-CoV-2, UniProt P0DTC2 319-541); assay: Octet BLI single point, monovalent
[7] = molecular target: SARS-CoV-2 Beta (B.1.351) spike protein (on reporter virus particles) (SARS-CoV-2, UniProt P0DTC2 14-1273); assay: cell-based or functional assay
[8] = molecular target: SARS-CoV-2 Alpha (B.1.1.7) spike protein (on reporter virus particles) (SARS-CoV-2, UniProt P0DTC2 14-1273); assay: cell-based or functional assay
[9] = molecular target: SARS-CoV-2 L452R RBD (Epsilon) (SARS-CoV-2, UniProt P0DTC2 319-541); assay: Octet BLI single point, monovalent
[10] = molecular target: SARS-CoV-2 Gamma (P.1) spike protein (on reporter virus particles) (SARS-CoV-2, UniProt P0DTC2 14-1273); assay: cell-based or functional assay
[11] = molecular target: SARS-CoV-2 Epsilon (B.1.427/429) spike protein (on reporter virus particles) (SARS-CoV-2, UniProt P0DTC2 14-1273); assay: cell-based or functional assay

Binder | Kd (SARS-CoV-2 RBD-mFc) [nM] | PsV IC50, Test 1 [1] [nM] | Kd [2] [nM] | Kd [3] [nM] | Kd [4] [nM] | Kd [5] [nM] | Kd [6] [nM] | PsV neutralization IC50 [7] [µg/mL] | PsV neutralization IC90 [7] [µg/mL] | PsV neutralization IC50 [8] [µg/mL] | PsV neutralization IC90 [8] [µg/mL] | PsV IC50, Test 2 [1] [nM] | Kd [9] [nM] | PsV neutralization IC50 [10] [µg/mL] | PsV neutralization IC90 [10] [µg/mL] | PsV neutralization IC50 [11] [µg/mL] | PsV neutralization IC90 [11] [µg/mL]
A-9 (antibody, V domains shown) VH: EVQLVESGGGLVKPGRSLRLSCAASGFTFADYAMSWFRQAPGKGLEWVGFIRSKPYGGTTEYAASVKGRFTISRDDSKSIAYLQMNSLKTEDTAVYYCSRDPWYCSGGDCYAVTGSWFDPWGQGTLVTVSS VL: DIVLTQSPSSLSASVGDRVTITCQASQDIKKYLNWYQQKPGKAPKLLIYDVSNLETGVPSRFSGSGSGTDFTFTISSLQPEDVAIYYCQQYDNLPQTFGQGTKVDIK | 0.147 | 20.8 | 12.9 | 10 | 15 | 6.28 | 17.8 | 0.028 | 0.184 | 0.019 | 0.118 | – | – | – | – | – | –
A-18 (antibody, V domains shown) VH: EVQLLESGGGLVQPGGSLRLSCAASGFTFSRYWMHWVRQAPGKGLVWVSRINSDGSSTTYADSVKGRFTISRDNAKNTLYLQMNSLRAEDTAVYYCARELYYYDSRGAEEGEGWFDPWGQGTLVTVSS VL: QSVLTQPPSVSGAPGQRVTISCTGISSNIGAGYDVHWYQQLPGTAPKLLIYGNSNRPSGVPDRFSASKSGTSAPLAITGLQAEDEADYYCQSSDRSLSGSVFGTGTKLTVL | 0.0757 | 1.96 | 0.649 | 1.03 | 0.553 | 0.714 | 0.444 | 0.259 | 1.65 | 0.316 | 2.04 | 8.84 | 1.22 | – | – | – | –
A-22 (antibody, V domains shown) VH: not shown VL: EIVLTQSPGTLSLSPGERATLSCRASQTVRSDLAWYQQKPGQAPRLLIYGASTRATDISDRFSGSGSGTEFTLTISSLQSEDFAVYYCQQYYEWPPHSDSFGGGTKVEIK | – | – | – | 0.35 | 0.258 | 0.218 | 0.25 | 2.13 | 12.8 | 1.53 | 9.54 | – | 0.756 | 0.335 | 0.736 | 1.49 | 25.3
